# Data taken from paper PMC4687139, “The secreted L-arabinose isomerase displays anti-hyperglycemic effects in mice” (Microbial Cell Factories, 2015).
# T1: secreted L-arabinose isomerase (L-AI) from L. sakei 23 K, purified from L. lactis MRS40 (Latilactobacillus sakei, UniProt Q38UH2)
# T1 construct: gene araA; araA fused behind SPUsp45 signal peptide and LEISSTCDA propeptide (pSEC:LEISS:araA); secreted by Lactococcus lactis NZ9000 htrA clpP (MRS40), purified from supernatant; about 56 kDa monomer, homotetramer
# T1 sequence (Q38UH2 2-474 limits assumed): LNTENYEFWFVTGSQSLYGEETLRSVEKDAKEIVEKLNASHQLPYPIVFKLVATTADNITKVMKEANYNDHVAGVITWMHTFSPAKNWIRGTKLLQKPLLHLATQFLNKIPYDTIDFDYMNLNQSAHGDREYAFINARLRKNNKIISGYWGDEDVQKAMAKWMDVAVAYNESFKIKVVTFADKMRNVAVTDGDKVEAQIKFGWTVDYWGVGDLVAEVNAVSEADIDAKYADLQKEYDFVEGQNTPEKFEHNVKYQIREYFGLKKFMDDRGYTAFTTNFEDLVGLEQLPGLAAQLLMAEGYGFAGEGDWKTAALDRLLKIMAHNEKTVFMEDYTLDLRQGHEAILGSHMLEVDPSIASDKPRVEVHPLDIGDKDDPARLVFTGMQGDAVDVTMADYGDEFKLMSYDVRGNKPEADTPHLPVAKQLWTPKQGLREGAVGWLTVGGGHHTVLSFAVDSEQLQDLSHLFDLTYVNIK
# B1: L-arabinose isomerase (L-AI) from Lactobacillus sakei 23 K, produced intracellularly in E. coli (enzyme, UniProt Q38UH2 1-474, looked up)
# chain: MLNTENYEFWFVTGSQSLYGEETLRSVEKDAKEIVEKLNASHQLPYPIVFKLVATTADNITKVMKEANYNDHVAGVITWMHTFSPAKNWIRGTKLLQKPLLHLATQFLNKIPYDTIDFDYMNLNQSAHGDREYAFINARLRKNNKIISGYWGDEDVQKAMAKWMDVAVAYNESFKIKVVTFADKMRNVAVTDGDKVEAQIKFGWTVDYWGVGDLVAEVNAVSEADIDAKYADLQKEYDFVEGQNTPEKFEHNVKYQIREYFGLKKFMDDRGYTAFTTNFEDLVGLEQLPGLAAQLLMAEGYGFAGEGDWKTAALDRLLKIMAHNEKTVFMEDYTLDLRQGHEAILGSHMLEVDPSIASDKPRVEVHPLDIGDKDDPARLVFTGMQGDAVDVTMADYGDEFKLMSYDVRGNKPEADTPHLPVAKQLWTPKQGLREGAVGWLTVGGGHHTVLSFAVDSEQLQDLSHLFDLTYVNIK
# notes: L-arabinose isomerase (araA gene product) of Lactobacillus sakei 23 K; apparent molecular weight of the monomer about 56 kDa on SDS-PAGE; also called intracellular form; purified L-AI from E. coli; source: E. coli BL21 (strain MRS36, plasmid pMR36), over-expressed and purified as previously reported [30]
# B2: secreted L-arabinose isomerase (L-AI) from Lactobacillus sakei 23 K, secreted by L. lactis MRS40 (pSEC:LEISS:araA) (enzyme)
# chain: LEISSTCDAALNTENYEFWFVTGSQSLYGEETLRSVEKDAKEIVEKLNASHQLPYPIVFKLVATTADNITKVMKEANYNDHVAGVITWMHTFSPAKNWIRGTKLLQKPLLHLATQFLNKIPYDTIDFDYMNLNQSAHGDREYAFINARLRKNNKIISGYWGDEDVQKAMAKWMDVAVAYNESFKIKVVTFADKMRNVAVTDGDKVEAQIKFGWTVDYWGVGDLVAEVNAVSEADIDAKYADLQKEYDFVEGQNTPEKFEHNVKYQIREYFGLKKFMDDRGYTAFTTNFEDLVGLEQLPGLAAQLLMAEGYGFAGEGDWKTAALDRLLKIMAHNEKTVFMEDYTLDLRQGHEAILGSHMLEVDPSIASDKPRVEVHPLDIGDKDDPARLVFTGMQGDAVDVTMADYGDEFKLMSYDVRGNKPEADTPHLPVAKQLWTPKQGLREGAVGWLTVGGGHHTVLSFAVDSEQLQDLSHLFDLTYVNIK
# Experiments:
# [1] = molecular target: T1, secreted L-arabinose isomerase (L-AI) from L. sakei 23 K, purified from L. lactis MRS40; test: bioconversion to D-tagatose, cysteine carbazole assay; type: biochemical; details: 10 g/l D-galactose, 0.3 mg/ml enzyme, pH 5.0, 6.0 and 7.0
# [2] = molecular target: the molecule itself; test: SEC; gel filtration chromatography of the purified L-AI preparations, calibrated with protein markers of 669, 440, 232, 140 and 66 kDa; read together with SDS-PAGE (monomer about 56 kDa)
Molecule,"bioconversion to D-tagatose, cysteine carbazole assay [1]",stoichiometry N [2]
OC[C@H]1OC(O)[C@H](O)[C@@H](O)[C@H]1O (stereo partly drawn) [D-galactose],The purified secreted L-AI displayed a high efficiency to isomerize the D-galactose into D-tagatose,
B1,,4
B2,,4
